Results from US20120167239A1.

Biological target: GAL4:CfEcR-DEF (yeast; Choristoneura fumiferana)
Assay: cell-based or functional assay

For VP16:LmUSP-EF, the maximum fold induction of luciferase reporter (two-hybrid switch, stable CHO clone 1A2, non-steroidal ligand) was 162 fold and the maximum fold induction of luciferase reporter (two-hybrid switch, stable CHO clone 1A2, steroid PonA) was 42 fold.
